These results are taken from publication PMC9701394, “Modified exosomal SIRPα variants alleviate white matter injury after intracerebral hemorrhage via microglia/macrophages” (Biomaterials Research, 2022).

What is called Kd is the concentration at which binding is half-saturated. Read a low Kd as tighter binding.

The assay deals with T1, biotinylated CD47 (UniProt Q08722 19-141, biotin (by BirA ligase, on the Avi tag)).
T1 construct: CD47, IgSF domain; the SPR methods say only 'biotinylated CD47'. 'Purified as described above' would imply a His tag and a cleaved GST; also called CD47 IgSF domain
Briefly: SPR; biotinylated CD47 (Rmax ~150 RU) captured on Biacore SA sensor chip at 25 °C; serial dilutions of SIRPα in HBS-P buffer; regeneration with 2 mol/L MgCl2; Langmuir binding model, Biacore T200. The conditions noted are these: both partners purified. (In SPR one partner is held on a chip, and binding of the other changes the refractive index at the surface.)

T1 sequence (Q08722 19-141): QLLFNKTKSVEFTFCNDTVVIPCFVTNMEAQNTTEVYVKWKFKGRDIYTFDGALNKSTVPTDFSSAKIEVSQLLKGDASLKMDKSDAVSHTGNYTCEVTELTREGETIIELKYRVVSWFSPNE

B1: wild-type SIRPα (SIRPα WT), soluble monomer (domain or fragment, human, UniProt P78324 31-148, looked up)
chain: EEELQVIQPDKSVLVAAGETATLRCTATSLIPVGPIQWFRGAGPGRELIYNQKEGHFPRVTTVSDLTKRNNMDFSIRIGNITPADAGTYYCVKFRKGSPDDVEFKSGAGTELSVRAKP
notes: signal regulatory protein α (SIRPα), human, N-terminal V-set Ig domain; also called wild-type human SIRPα; SIRPα WT monomer; source: E. coli BL-21(DE3), purified (Ni-NTA; GST removed with HRV 3C protease); not shown: GST, N-terminal, cleaved
For B1, binding was put at a Kd of 365 nM and the “dissociation half-life (t1/2)” value was found to be 2.4 s.
